Laboratory results taken from patent publication US20100081612A1 (GENERAL HOSPITAL, published 2010).
Where two headings read alike, the source gives them in different places. One block for each binder: values may come before it. Where no end group is shown, it is not given here.

Assays:
[1] = target: T1, rat PTHR endogenously expressed in ROS 17/2.8 cells (rat, UniProt P25961 27-591); assay: competition binding, ROS 17/2.8 cells, 125I-PTH(1-34) tracer
T1 construct: whole, on cells; also called endogenous PTHR; PTHR in ROS 17/2.8 cells
T1 sequence (looked up): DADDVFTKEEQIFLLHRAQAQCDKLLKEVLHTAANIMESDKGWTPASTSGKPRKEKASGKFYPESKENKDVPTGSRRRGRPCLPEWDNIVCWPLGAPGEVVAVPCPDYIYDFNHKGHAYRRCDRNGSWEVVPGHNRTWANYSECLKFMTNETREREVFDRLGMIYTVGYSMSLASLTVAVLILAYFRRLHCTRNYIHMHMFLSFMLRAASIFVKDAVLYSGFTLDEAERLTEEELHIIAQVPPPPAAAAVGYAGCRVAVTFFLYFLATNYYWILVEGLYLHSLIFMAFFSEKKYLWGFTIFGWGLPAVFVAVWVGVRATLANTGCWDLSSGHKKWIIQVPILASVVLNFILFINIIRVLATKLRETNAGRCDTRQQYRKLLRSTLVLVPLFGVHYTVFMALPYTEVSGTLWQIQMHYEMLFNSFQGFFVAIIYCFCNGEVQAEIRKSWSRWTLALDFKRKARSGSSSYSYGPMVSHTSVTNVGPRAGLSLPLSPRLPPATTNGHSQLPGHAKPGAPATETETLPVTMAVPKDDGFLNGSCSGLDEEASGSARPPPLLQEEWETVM
Procedure: (§1) Receptor binding—Binding to the wild-type human PTHR in intact HKRK-B7 cells and ROS 17/2.8 cells was assessed using ¹²⁵I-PTH(1-34) as a tracer radioligand, as described (Shimizu, M., (2001) Endocrinology 142:3068-3074). In brief, the cells in 24-well plates (about 500,000 cells per well) were incubated in binding buffer containing radioligand (about 100,000 cpm per well) with or without unlabeled peptide ligand (3×10⁻⁹ to 1×10⁻⁵ M) for four hours at 15° C. The binding mixture was then removed by aspiration, the cells were rinsed three times with binding buffer, lysed in 1 M NaOH, and the entire lysate was counted for gamma-irradiation in a gamma counter. Binding to PTHR-delNt in COS-7 cell membranes was assessed in 96-well, vacuum filtration plates (Multiscreen-Durapore HV, […], Millipore Corp., Millford, Mass.) using ¹²⁵I-[Aib^{1,3},M]PTH(1-15)NH₂ as a tracer radioligand, as described (Dean, T., (2006) Mol Endocrinol 20:931-942). In brief, cell membranes (20 μg/well) were incubated in membrane binding buffer containing radioligand (30,000 cpm/well) with or without unlabeled peptide ligand (3×10⁻⁹ to 1×10⁻⁵ M) for 90 minutes at 21° C. The plates were then subject to rapid vacuum filtration, the filters were washed once with buffer, detached from the plate and counted for gamma-irradiation in a gamma counter. Non-specific binding was defined as the binding observed in the presence of 1×10⁻⁶ M PTH(1-31)NH₂ for HKRK-B7 and ROS 17/2.8 cells, and 1×10⁻⁶ M [Aib^{1,3},M]PTH(1-15)NH₂ for PTHR-delNt. Specifically bound radioactivity was calculated as a percentage of the radioactivity specifically bound in the absence of competing ligand.
Effects on cAMP and IP signaling—Selected analogs of [Ala¹,Arg¹⁹]hPTH(1-31)NH₂ with substitutions that markedly impaired binding to HKRK-B7 cells were assessed for their capacity to bind to the PTHR in ROS 17/2.8 cells and to stimulate cAMP-signaling responses in these cells. These bone-derived cells endogenously express the rat PTHR at a more physiological level than is found in HKRK-B7 cells (approximately 80,000 PTHRs per cell vs. 950,000 PTHRs per cell) and, have generally been found (data not shown) to yield closer correlations between PTH analog binding affinity and cAMP-signaling potency than do HKRK-B7 cells, presumably due to their lower PTHR expression level.

[2] = target: T2, wild-type human PTHR (human, UniProt Q03431 27-593); assay: competition binding, HKRK-B7 cells, 125I-PTH(1-34) tracer
T2 construct: whole, on cells; also called PTHR-WT; intact PTHR
T2 sequence (looked up): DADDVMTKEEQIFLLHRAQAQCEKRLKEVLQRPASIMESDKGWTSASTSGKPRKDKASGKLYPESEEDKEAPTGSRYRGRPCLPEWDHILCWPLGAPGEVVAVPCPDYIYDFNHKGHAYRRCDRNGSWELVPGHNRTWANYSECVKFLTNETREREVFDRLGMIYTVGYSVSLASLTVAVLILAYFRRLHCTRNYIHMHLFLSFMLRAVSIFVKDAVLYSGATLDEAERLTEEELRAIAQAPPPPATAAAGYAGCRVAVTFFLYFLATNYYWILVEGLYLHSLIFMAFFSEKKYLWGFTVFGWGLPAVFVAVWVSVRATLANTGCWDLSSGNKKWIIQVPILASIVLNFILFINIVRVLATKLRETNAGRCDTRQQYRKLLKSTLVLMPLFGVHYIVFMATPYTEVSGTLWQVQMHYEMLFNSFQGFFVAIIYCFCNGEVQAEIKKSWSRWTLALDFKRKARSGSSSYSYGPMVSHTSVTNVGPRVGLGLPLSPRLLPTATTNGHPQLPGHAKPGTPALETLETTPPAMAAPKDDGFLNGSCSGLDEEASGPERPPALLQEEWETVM
In short: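 Intact HKRK-B7 cells stably expressing hPTHR incubated 4 h at 15° C with ¹²⁵I-PTH(1-34) tracer and unlabeled peptide (3×10⁻⁹ to 1×10⁻⁵ M). Nonspecific binding defined with 1×10⁻⁶ M PTH(1-31)NH₂. Bound activity counted after lysis and expressed as % specific binding without competitor; values in nM, mean ± s.e.m.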

[3] = target: PTHR-delNt (human) (UniProt Q03431); assay: competition binding, COS-7 membranes, 125I-[Aib1,3,M]PTH(1-15) tracer
[4] = target: T1, rat PTHR endogenously expressed in ROS …; assay: cell-based or functional assay
[5] = target: T2, wild-type human PTHR; assay: competition binding, HKRK-B7 cells, 125I-PTH(1-34) tracer; remark: listed apart in the source
Procedure: as §1
Alanine-Scan of the PTH(17-31) domain—Each residue in the (17-31) region of PTH(1-31)NH₂ was individually replaced with alanine and the effects of the substitutions on binding to the intact human PTHR stably expressed in HKRK-B7 cells was assessed. Competition binding studies were performed using whole cells and ¹²⁵I-PTH(1-34) (¹²⁵I-[Nle^{8,21},Tyr³⁴]ratPTH(1-34)NH₂) as a tracer radioligand.

[6] = target: T2, wild-type human PTHR; assay: cell-based or functional assay
[7] = target: T2, wild-type human PTHR; assay: competition binding, HKRK-B7 cells, 125I-PTH(1-34) tracer; remark: listed apart in the source

B1: [Ala^1,Arg^19]hPTH(1-31)NH2 (peptide)
peptide: AVSEIQLMHNLGKHLNSMRRVEWLRKKLQDV-NH2
notes: also called [Ala^1,Arg^19]PTH(1-31)NH2; [Ala^1,Arg^19]PTH(1-31)
IC50 [1]: 1.6 nM
IC50 [2]: 38 nM
IC50 [3]: 397 nM
cAMP EC50, ROS 17/2.8 cells [4]: 0.78 nM

Binder: SVSEIQLMHNLGKHLNSMARVEWLRKKLQDV-NH2 [PTH(1-31)NH2 Glu^19→Ala]
fold enhancement in binding affinity vs PTH(1-31)NH2 [7]: ≤ 2 fold
IC50 [5]: 49 nM
IC50 [3]: 2940 nM
inositol phosphate (IP) production, peptide at 1×10^-6 M [6]: 4 fold

Binder: SVSEIQLMHNLGKHLNSMERVEWLAKKLQDV-NH2 [PTH(1-31)NH2 Arg^25→Ala]
IC50 [5]: 281 nM
IC50 [3]: 7180 nM
inositol phosphate (IP) production, peptide at 1×10^-6 M [6]: 4 fold

Binder: SVSEIQLMHNLGKHLNAMERVEWLRKKLQDV-NH2 [PTH(1-31)NH2 Ser^17→Ala]
fold change in binding affinity vs PTH(1-31)NH2 [7]: ≤ 2 fold
IC50 [5]: 57 nM
IC50 [3]: 4580 nM
inositol phosphate (IP) production, peptide at 1×10^-6 M [6]: 4 fold

Binder: SVSEIQLMHNLGKHLNSMERVEWARKKLQDV-NH2 [PTH(1-31)NH2 Leu^24→Ala]
fold reduction in binding affinity vs PTH(1-31)NH2 [7]: 12 fold
IC50 [5]: 807 nM
IC50 [3]: 8760 nM
fold reduction in binding affinity vs PTH(1-31)NH2 [3]: 2 fold
inositol phosphate (IP) production, peptide at 1×10^-6 M [6]: 4 fold

Binder: SVSEIQLMHNLGKHLNSMERVEWLRKKAQDV-NH2 [PTH(1-31)NH2 Leu^28→Ala]
IC50 [5]: 290 nM
IC50 [3]: 3460 nM
inositol phosphate (IP) production, peptide at 1×10^-6 M [6]: 4 fold

Binder: SVSEIQLMHNLGKHLNSAERVEWLRKKLQDV-NH2 [PTH(1-31)NH2 Met^18→Ala]
fold change in binding affinity vs PTH(1-31)NH2 [7]: ≤ 2 fold
IC50 [5]: 92 nM
IC50 [3]: 8800 nM
inositol phosphate (IP) production, peptide at 1×10^-6 M [6]: 4 fold

Binder: SVSEIQLMHNLGKHLNSMERVEWLRKKLADV-NH2 [PTH(1-31)NH2 Gln^29→Ala]
fold enhancement in binding affinity vs PTH(1-31)NH2 [7]: ≤ 2 fold
IC50 [5]: 44 nM
IC50 [3]: 1930 nM
inositol phosphate (IP) production, peptide at 1×10^-6 M [6]: 4 fold

Binder: SVSEIQLMHNLGKHLNSMERVEWLRAKLQDV-NH2 [PTH(1-31)NH2 Lys^26→Ala]
fold change in binding affinity vs PTH(1-31)NH2 [7]: ≤ 2 fold
IC50 [5]: 125 nM
IC50 [3]: 6210 nM
inositol phosphate (IP) production, peptide at 1×10^-6 M [6]: 4 fold

Binder: SVSEIQLMHNLGKHLNSMERVEWLRKALQDV-NH2 [PTH(1-31)NH2 Lys^27→Ala]
IC50 [5]: 217 nM
IC50 [3]: 7290 nM
inositol phosphate (IP) production, peptide at 1×10^-6 M [6]: 4 fold

Continued by falling IC50 [3], values first:

IC50 [5]: > 10000 nM
IC50 [3]: 19300 nM
fold reduction in binding affinity vs PTH(1-31)NH2 [3]: 5 fold
inositol phosphate (IP) production, peptide at 1×10^-6 M [6]: 4 fold
Binder: SVSEIQLMHNLGKHLNSMEAVEWLRKKLQDV-NH2 [PTH(1-31)NH2 Arg^20→Ala]

fold reduction in binding affinity vs PTH(1-31)NH2 [7]: 19 fold
IC50 [5]: 1310 nM
IC50 [3]: 7360 nM
fold reduction in binding affinity vs PTH(1-31)NH2 [3]: 2 fold
inositol phosphate (IP) production, peptide at 1×10^-6 M [6]: 4 fold
Binder: SVSEIQLMHNLGKHLNSMERVEALRKKLQDV-NH2 [PTH(1-31)NH2 Trp^23→Ala]

fold enhancement in binding affinity vs PTH(1-31)NH2 [7]: ≤ 2 fold
IC50 [5]: 36 nM
IC50 [3]: 5860 nM
inositol phosphate (IP) production, peptide at 1×10^-6 M [6]: 4 fold
Binder: SVSEIQLMHNLGKHLNSMERVAWLRKKLQDV-NH2 [PTH(1-31)NH2 Glu^22→Ala]

IC50 [5]: 200 nM
IC50 [3]: 5690 nM
inositol phosphate (IP) production, peptide at 1×10^-6 M [6]: 4 fold
Binder: SVSEIQLMHNLGKHLNSMERAEWLRKKLQDV-NH2 [PTH(1-31)NH2 Val^21→Ala]

IC50 [5]: 176 nM
IC50 [3]: 4910 nM
inositol phosphate (IP) production, peptide at 1×10^-6 M [6]: 4 fold
Binder: SVSEIQLMHNLGKHLNSMERVEWLRKKLQDA-NH2 [PTH(1-31)NH2 Val^31→Ala]

fold change in binding affinity vs PTH(1-31)NH2 [7]: ≤ 2 fold
IC50 [5]: 63 nM
IC50 [3]: 1540 nM
inositol phosphate (IP) production, peptide at 1×10^-6 M [6]: 4 fold
Binder: SVSEIQLMHNLGKHLNSMERVEWLRKKLQAV-NH2 [PTH(1-31)NH2 Asp^30→Ala]

IC50 [1]: 3100 nM
IC50 [2]: 10400 nM
IC50 [3]: 974 nM
fold reduction in binding affinity vs [Ala^1,Arg^19]PTH(1-31)NH2 [3]: < 3 fold
cAMP EC50, ROS 17/2.8 cells [4]: 11 nM
Binder: AVSEIQLMHNLGKHLNSMRRVEWLRKKEQDV-NH2 [[Ala^1,Arg^19]hPTH(1-31)NH2 Leu^28→Glu]

fold reduction in binding affinity vs [Ala^1,Arg^19]PTH(1-31)NH2 [7]: ≥ 150 fold
IC50 [1]: 5800 nM
IC50 [2]: > 10000 nM
IC50 [3]: 776 nM
fold reduction in binding affinity vs [Ala^1,Arg^19]PTH(1-31)NH2 [3]: < 3 fold
cAMP EC50, ROS 17/2.8 cells [4]: 59 nM
Binder: AVSEIQLMHNLGKHLNSMREVEWLRKKLQDV-NH2 [[Ala^1,Arg^19]hPTH(1-31)NH2 Arg^20→Glu]

IC50 [1]: 220 nM
IC50 [2]: 6040 nM
IC50 [3]: 434 nM
fold reduction in binding affinity vs [Ala^1,Arg^19]PTH(1-31)NH2 [3]: < 3 fold
cAMP EC50, ROS 17/2.8 cells [4]: 4 nM
Binder: AVSEIQLMHNLGKHLNSMRRVEELRKKLQDV-NH2 [[Ala^1,Arg^19]hPTH(1-31)NH2 Trp^23→Glu]
